# Measured values as given in patent US20190194358A1 (ARIZONA BOARD OF REGENTS A BODY CORPORATE OF THE STATE OF …, published 2019).
# Ends that are not written are not given here.
# B1: synbody comprising TRF-26 and TRF-23 (Example 9, lysine-linked) (designed binder)
# peptide 1: AHKVVPQRQIRHAYNRYGSG
# peptide 2: FRGWAHIFFGPHVIYRGGSG
# modifications: not fully specified (bridges); also: C-termini joined to alpha or epsilon amines of branching Lys, orientation not given here, followed by C-terminal Cys, Gly or Ala, not given here which
# notes: probably the same construct family as SYN23-26
# B2: linker-optimized BP1/BP2 DNA-linked synbody (BP1 on the template strand, BP2 at position 13 from the 3' end of the variable strand) (designed binder)
# peptide 1: GTEKGTSGWLKTGSC
# peptide 2: EGEWTEGKLSLRGSC
# modifications: not fully specified (some residues); cysteine pairing not given here; also: DNA strands hybridised
# notes: The two peptide-DNA conjugates are held together by hybridisation of the DNA strands; also called Gal80 synbody; BP1-BP2 containing synbody
# B3: TRF101 (peptide)
# peptide: ARDLLIQKNSGQDVDHRGSC
# notes: Screened unpurified, then resynthesised and HPLC purified
# Legend:
# transferrin [1] = target: T1, transferrin (human, UniProt P02787 20-698); assay: SPR, transferrin immobilised, Kd from kinetics
# T1 construct: also called TRF; pooled human transferrin (Sigma)
# Text: Flow rates and contact times are adjusted as necessary to provide the surface concentration of target desired for the intended application, and may vary by target. In general, for evaluating whether binding occurs, it is preferable to immobilize a relatively large quantity of target, and higher flow rates and/or longer contact times may be used. For determining kinetics, it is preferable to limit the amount of target immobilized so as to minimize rebinding and avidity effects, and lower flow rates and/or contact times may be used.
# albumin = assay: SPR
# transferrin [2] = target: T1, transferrin; assay: SPR (Biacore A-100), purified peptide at several concentrations, equilibrium
# Text: A Biacore A-100 Surface Plasmon Resonance (SPR) system was used to measure the binding response of each peptide to several different target proteins immobilized on a gold surface. The A-100 has four different flow cells and within each flow cell are five addressable spots. Therefore four different proteins and a negative control reference can be used per flow cell. […] Sensorgrams are collected from each immobilized protein, so a binding profile for each analyte versus each of the protein targets is generated for each injection. Target proteins were immobilized using a biotin capture approach in which a CM5 chip was activated using standard amine coupling chemistry and Neutravidin was covalently coupled to the chip. Each biotinylated protein was injected over a single spot and the amount of protein captured was measured. In this manner four proteins were immobilized per flow cell. In this example, the same four proteins were captured in all four flow cells for this experiment.
# T1 sequence (P02787 20-698 limits assumed): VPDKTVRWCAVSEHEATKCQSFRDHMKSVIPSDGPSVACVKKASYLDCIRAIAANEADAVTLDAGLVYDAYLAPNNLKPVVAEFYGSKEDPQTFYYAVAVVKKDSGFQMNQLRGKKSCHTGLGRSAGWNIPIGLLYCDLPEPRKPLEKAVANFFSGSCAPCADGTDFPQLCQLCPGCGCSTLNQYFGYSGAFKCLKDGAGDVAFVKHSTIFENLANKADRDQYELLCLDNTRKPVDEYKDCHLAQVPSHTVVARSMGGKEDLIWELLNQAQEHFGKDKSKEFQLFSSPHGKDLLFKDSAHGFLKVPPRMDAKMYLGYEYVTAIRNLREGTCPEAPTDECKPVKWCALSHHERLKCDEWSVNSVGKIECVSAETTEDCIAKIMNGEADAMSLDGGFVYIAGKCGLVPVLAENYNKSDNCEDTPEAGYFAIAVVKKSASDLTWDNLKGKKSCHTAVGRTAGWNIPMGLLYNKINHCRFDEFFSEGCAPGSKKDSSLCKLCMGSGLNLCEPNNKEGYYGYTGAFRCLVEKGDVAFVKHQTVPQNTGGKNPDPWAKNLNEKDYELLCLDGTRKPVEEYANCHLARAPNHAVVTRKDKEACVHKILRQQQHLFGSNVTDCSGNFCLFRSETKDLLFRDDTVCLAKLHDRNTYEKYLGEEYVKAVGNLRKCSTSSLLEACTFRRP
binder,measurement,setting,value
B1,Kd,transferrin [1],0.15 µM
B2,Kd relative to the Kd for gal80 (fold),albumin,> 1000 fold
B3,Kd,transferrin [2],78.9 µM
